Numbering of substitutions follows the chain as printed. Values belong to the binder of their own block, whether it stands above or below them.
Key:
[1] = target: T1, recombinant cyno monkey PCSK9 protein (cyno monkey, UniProt A8T666 31-692 (rhesus entry), limits assumed, biotinylated in the ELISA assays); assay: ELISA; antibody 0.0067 nM
T1 construct: also called cyno PCSK9; Cyno Monkey PCSK9-His

[2] = target: T2, recombinant human PCSK9-His protein (Immunogen A) (human, UniProt Q8NBP7 31-692, limits assumed, biotinylated in the ELISA assays); assay: ELISA; antibody 0 nM
T2 construct: also called hPCSK9-His; His-tagged hPCSK9; not shown: His tag

[3] = target: T1, recombinant cyno monkey PCSK9 protein; assay: ELISA; antibody 0 nM
[4] = target: T1, recombinant cyno monkey PCSK9 protein; assay: ELISA; antibody 0.000067 nM
[5] = target: T1, recombinant cyno monkey PCSK9 protein; assay: ELISA; antibody 6.67 nM
[6] = target: T2, recombinant human PCSK9-His protein …; assay: ELISA of PCSK9 binding to LDLR ECD; antibody 0 nM
[7] = target: T2, recombinant human PCSK9-His protein …; assay: ELISA of PCSK9 binding to LDLR ECD; antibody 8 nM
[8] = target: T2, recombinant human PCSK9-His protein …; assay: ELISA; antibody 66.67 nM
[9] = target: T1, recombinant cyno monkey PCSK9 protein; assay: ELISA; antibody 66.67 nM
[10] = target: T2, recombinant human PCSK9-His protein …; assay: ELISA of PCSK9 binding to LDLR ECD; antibody 0.32 nM
[11] = target: T2, recombinant human PCSK9-His protein …; assay: SPR, Biacore T200; antibody captured by anti-human Fc
Experimental: Anti-human Fc IgG was immobilized on flow cells 1 and 2: HBS-EP+(10 mM HEPES, 150 mM NaCl, 3 mM EDTA, 0.05% P20, pH 7.4) was used as running buffer, and the immobilization of anti-human Fc IgG was carried out using the immobilization wizard template. Flow cells 1 and 2 of a Series S CM5 sensor chip were activated with freshly-mixed 50 mmol/L NHS and 200 mmol/L EDC. 20 ug/mL of anti-human Fc IgG diluted in 10 mM NaAC (pH 4.5) was injected into the activated flow cells 1 and 2. The remaining active coupling sites were blocked with 1M ethanolamine.
KD measurements were carried out with HBS-EP+ as the running buffer. Each antibody was injected over the CM5 sensor flow cell 2 with a flow rate of 10 uL/min to reach response 230 RU. […] Buffer flow was maintained for 400 seconds for dissociation measurements (30 uL/min). To remove the tested antibody from the surface, 10 mM glycine-HCl pH 1.5 was injected for 20 seconds (30 ulJmin). Flow cell 1 was used as reference flow cell. […] The KD value for each antibody was evaluated using Biacore T200 evaluation software 1.0, and the data was fit with a 1:1 binding model.

[12] = target: T1, recombinant cyno monkey PCSK9 protein; assay: ELISA; antibody 0.067 nM
[13] = target: T2, recombinant human PCSK9-His protein …; assay: ELISA; antibody 0.0067 nM
[14] = target: T1, recombinant cyno monkey PCSK9 protein; assay: ELISA; antibody 0.67 nM
[15] = target: T2, recombinant human PCSK9-His protein …; assay: ELISA of PCSK9 binding to LDLR ECD; antibody 0.01 nM
[16] = target: T2, recombinant human PCSK9-His protein …; assay: BLI, Octet Red 96; antibody on AHC sensor
Experimental: Dissociation constants were determined by Octed red 96 (Fortiebio). The detailed operation and methods were followed according to the specifications of the instrument provided by the manufacturer. Briefly, an AHC sensor (Anti-human Fc sensor, Fortiebio) was used for the affinity determination. The anti-PCSK9 antibody was diluted to 10 ug/mL in PBS buffer (pH7.4) containing 0.1% (w/w) BSA and 0.02% (v/v) Tween 20 and incubated with the AHC sensor. […] The reaction mixture was further incubated in PBS buffer (pH7.4) containing 0.1% (v/w) BSA and 0.02% (v/v) Tween 20 at 30° C. for 5 minutes.

[17] = target: T1, recombinant cyno monkey PCSK9 protein; assay: ELISA; antibody 0.00067 nM
[18] = target: T2, recombinant human PCSK9-His protein …; assay: ELISA; antibody 0.000067 nM
[19] = target: T2, recombinant human PCSK9-His protein …; assay: ELISA; antibody 0.00067 nM
[20] = target: T2, recombinant human PCSK9-His protein …; assay: ELISA; antibody 6.67 nM
[21] = target: T2, recombinant human PCSK9-His protein …; assay: ELISA; antibody 0.067 nM
[22] = target: T2, recombinant human PCSK9-His protein …; assay: ELISA of PCSK9 binding to LDLR ECD; antibody 40 nM
[23] = target: T2, recombinant human PCSK9-His protein …; assay: ELISA; antibody 0.67 nM
[24] = target: T2, recombinant human PCSK9-His protein …; assay: ELISA of PCSK9 binding to LDLR ECD; antibody 200 nM
[25] = target: T2, recombinant human PCSK9-His protein …; assay: ELISA of PCSK9 binding to LDLR ECD; antibody 1.6 nM
[26] = target: T2, recombinant human PCSK9-His protein …; assay: ELISA of PCSK9 binding to LDLR ECD; antibody 0.06 nM

T1 sequence (A8T666 31-692 limits assumed): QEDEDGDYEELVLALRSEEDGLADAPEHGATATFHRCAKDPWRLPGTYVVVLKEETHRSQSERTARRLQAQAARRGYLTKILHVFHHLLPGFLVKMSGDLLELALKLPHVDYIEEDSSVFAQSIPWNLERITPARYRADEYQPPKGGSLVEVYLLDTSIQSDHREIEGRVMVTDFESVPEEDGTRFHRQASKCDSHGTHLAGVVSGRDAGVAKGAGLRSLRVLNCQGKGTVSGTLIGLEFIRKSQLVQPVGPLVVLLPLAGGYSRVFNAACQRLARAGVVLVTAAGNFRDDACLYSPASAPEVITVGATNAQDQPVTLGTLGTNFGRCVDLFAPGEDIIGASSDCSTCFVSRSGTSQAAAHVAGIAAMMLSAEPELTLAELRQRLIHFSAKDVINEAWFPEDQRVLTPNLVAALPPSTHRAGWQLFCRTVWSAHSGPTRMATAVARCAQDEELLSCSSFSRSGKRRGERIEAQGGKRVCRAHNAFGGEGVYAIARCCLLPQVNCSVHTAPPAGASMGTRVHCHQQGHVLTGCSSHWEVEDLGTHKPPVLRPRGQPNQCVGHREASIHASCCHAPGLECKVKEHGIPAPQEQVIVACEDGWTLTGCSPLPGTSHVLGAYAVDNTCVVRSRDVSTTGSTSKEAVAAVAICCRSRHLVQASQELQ

OD450 nm [1]: 0.29 OD450 nm
OD450 nm [2]: 0.06 OD450 nm
OD450 nm [3]: 0.06 OD450 nm
OD450 nm [4]: 0.08 OD450 nm
OD450 nm [5]: 3.01 OD450 nm
OD450 nm [6]: 2.31 OD450 nm
OD450 nm [7]: 1.57 OD450 nm
OD450 nm [8]: 3.04 OD450 nm
OD450 nm [9]: 3 OD450 nm
OD450 nm [10]: 2.28 OD450 nm
Kd [11]: 0.0709 nM
koff [11]: 2.4e-05 s⁻¹
kon [11]: 240000 M⁻¹ s⁻¹
OD450 nm [12]: 1.84 OD450 nm
OD450 nm [13]: 0.26 OD450 nm
OD450 nm [14]: 3 OD450 nm
OD450 nm [15]: 2.33 OD450 nm
Kd [16]: 0.63 nM
koff [16]: 0.000161 s⁻¹
kon [16]: 254000 M⁻¹ s⁻¹
OD450 nm [17]: 0.08 OD450 nm
OD450 nm [18]: 0.06 OD450 nm
OD450 nm [19]: 0.08 OD450 nm
OD450 nm [20]: 3.06 OD450 nm
OD450 nm [21]: 1.7 OD450 nm
OD450 nm [22]: 1.35 OD450 nm
OD450 nm [23]: 3.05 OD450 nm
OD450 nm [24]: 1.29 OD450 nm
OD450 nm [25]: 2.16 OD450 nm
OD450 nm [26]: 2.31 OD450 nm
B1: 139G1C5, fully human anti-PCSK9 antibody (antibody, human IgG1, V domains shown)
VH: QVQLQESGPGLVKPSGTLSLTCAVSGGSISRNNWWSWVRQPPGKGLEWIGEIYHSGSTNYNPSLKSRVTISVDKSKNQFSLKLSSVTAADTAVYYCARDLLGIGLDYWGQGTLVTVSS
VL: EFVLTQSPATLSLSPGERAILSCRASQSFSSYIAWYQQKPGQAPRLLIYDASNRATGIPARFSGSGSGTDFTLTISSLEPEDFAVYYCQQHSNWMYTFGQGTKLEIK

OD450 nm [1]: 0.08 OD450 nm
OD450 nm [2]: 0.06 OD450 nm
OD450 nm [3]: 0.06 OD450 nm
OD450 nm [4]: 0.07 OD450 nm
OD450 nm [5]: 2.89 OD450 nm
OD450 nm [6]: 2.29 OD450 nm
OD450 nm [7]: 1.86 OD450 nm
OD450 nm [8]: 3.07 OD450 nm
OD450 nm [9]: 2.97 OD450 nm
OD450 nm [10]: 2.31 OD450 nm
OD450 nm [12]: 0.26 OD450 nm
OD450 nm [13]: 0.15 OD450 nm
OD450 nm [14]: 1.56 OD450 nm
OD450 nm [15]: 2.27 OD450 nm
Kd [16]: 2.69 nM
koff [16]: 0.000453 s⁻¹
kon [16]: 168000 M⁻¹ s⁻¹
OD450 nm [17]: 0.06 OD450 nm
OD450 nm [18]: 0.06 OD450 nm
OD450 nm [19]: 0.07 OD450 nm
OD450 nm [20]: 3.12 OD450 nm
OD450 nm [21]: 0.94 OD450 nm
OD450 nm [22]: 1.31 OD450 nm
OD450 nm [23]: 2.91 OD450 nm
OD450 nm [24]: 1.32 OD450 nm
OD450 nm [25]: 2.19 OD450 nm
OD450 nm [26]: 2.25 OD450 nm
B2: 152G2F7, fully human anti-PCSK9 antibody (antibody, human IgG1, V domains shown)
VH: EVQLVESGGGLVQPGGSLRLSCAASEFTFGGYWMTWVRQAPGKGLEWVANIKQDGSEKYYVDSVKGRFTISRDNAKNSLYLHMNSLRAEDTAVYYCARDRTTMIRGVSLYYYYYGMDVWGQGTAVTVSS
VL: B1 VL with F2I, I20T, F29V, I33L, H91R, M95P, Y96L, Q100G, L104V

OD450 nm [1]: 0.11 OD450 nm
OD450 nm [2]: 0.06 OD450 nm
OD450 nm [3]: 0.06 OD450 nm
OD450 nm [4]: 0.13 OD450 nm
OD450 nm [5]: 2.73 OD450 nm
OD450 nm [6]: 2.4 OD450 nm
OD450 nm [7]: 1.76 OD450 nm
OD450 nm [8]: 3.04 OD450 nm
OD450 nm [9]: 2.86 OD450 nm
OD450 nm [10]: 2.32 OD450 nm
OD450 nm [12]: 0.48 OD450 nm
OD450 nm [13]: 0.23 OD450 nm
OD450 nm [14]: 2.1 OD450 nm
OD450 nm [15]: 2.31 OD450 nm
Kd [16]: 14.5 nM
OD450 nm [17]: 0.06 OD450 nm
OD450 nm [18]: 0.06 OD450 nm
OD450 nm [19]: 0.08 OD450 nm
OD450 nm [20]: 3.04 OD450 nm
OD450 nm [21]: 1.52 OD450 nm
OD450 nm [22]: 1.43 OD450 nm
OD450 nm [23]: 3 OD450 nm
OD450 nm [24]: 1.41 OD450 nm
OD450 nm [25]: 2.19 OD450 nm
OD450 nm [26]: 2.28 OD450 nm
B3: 74C10A8, fully human anti-PCSK9 antibody (antibody, human IgG1, V domains shown)
VH: QVQLQESGPGLVKPSETLSLTCSVSGGSINTYYWSWIRQPPGKGLEWIGYIYYSGSTNYNPSLKSRVTISVDTSKNQFSLKLTSVTAADTAVYYCARERFTMVRGVMMDYYYYGMDVWGQGTTVTVSS
VL: DIQLTQSPSFLSASVGDRVTITCRASQGISSYLAWYQQKPGKAPKLLIYAASTLQSGVPSRFSGSGSGTEFTLTISSLQPEDFATYYCQQLNSYPRTFGQGTKVEIK
